Measured values published in patent US20110076723A1, “ANTIBODY-PEPTIDE FUSED SYNERGIBODY” (SAMSUNG ELECTRONICS CO., LTD., priority 2008, published 2011).

T1: recombinant hAng-2 (recombinant protein with His tag attached to human Ang-2; R&D Systems) (human, UniProt O15123 19-496)
T1 construct: also called angiopoietin-2; ANGPT2
T1 sequence (looked up): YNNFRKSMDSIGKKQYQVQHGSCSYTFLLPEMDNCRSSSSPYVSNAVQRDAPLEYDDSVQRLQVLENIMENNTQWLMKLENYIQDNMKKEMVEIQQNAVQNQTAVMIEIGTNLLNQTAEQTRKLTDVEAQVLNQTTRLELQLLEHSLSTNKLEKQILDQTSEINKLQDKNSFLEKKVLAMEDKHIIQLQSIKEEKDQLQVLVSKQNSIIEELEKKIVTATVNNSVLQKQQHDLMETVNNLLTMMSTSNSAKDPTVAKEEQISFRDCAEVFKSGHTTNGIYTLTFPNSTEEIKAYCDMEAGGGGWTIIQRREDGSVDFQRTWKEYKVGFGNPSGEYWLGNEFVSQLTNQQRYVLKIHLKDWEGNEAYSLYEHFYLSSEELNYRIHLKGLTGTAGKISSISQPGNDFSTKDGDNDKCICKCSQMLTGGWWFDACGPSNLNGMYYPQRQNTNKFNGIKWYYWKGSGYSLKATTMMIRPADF

B1: Syn-Ang-VEGFR-6 (other)
heavy (part 1 of 2): QVQLQQSGPELVKPGASVKMSCKASGYTFTDYVISWVKQRTGQGLEWIGEIYPGSGSTYYNEKFKGKASLTADKSSNTAYMQLSSLTSADSAVYFCVRSRGDYYAMDYWGQGTSVTVSS
heavy (part 2 of 2): TGSDDLCYTFPCMHY
light: DIQMTQSPSSLSASLGGKVTITCKASQDINNYITWYQHKPGKGPRLLIHYTSTLQPGIPSRFSGSGSGRDYSFSISNLEPEDIATYYCLQYDNLLTFGGGTKLEIK
notes: Chimeric (human IgG1) SAITAng-2-2 with the peptide at the C-terminus of the heavy chain; also called SAITAng-2-2 x DTN6VEGFR-2-1; not shown: human IgG1 heavy chain constant region with Fc region, from the vector; human light chain constant region, printed as 'constant region of human IgG1'
B2: Syn-Ang-VEGFR-8 (other)
heavy (part 1 of 2): B1 heavy (part 1 of 2)
heavy (part 2 of 2): EAGAYWCKAWGLSPCLVT
light: B1 light
notes: Chimeric (human IgG1) SAITAng-2-2 with the peptide at the C-terminus of the heavy chain; also called SAITAng-2-2 x DTN9VEGFR-2-3; not shown: human IgG1 heavy chain constant region with Fc region, from the vector; human light chain constant region, printed as 'constant region of human IgG1'
B3: Syn-Ang-VEGFR-7 (other)
heavy (part 1 of 2): B1 heavy (part 1 of 2)
heavy (part 2 of 2): EAGKETCGYEWQYCPRP
light: B1 light
notes: Chimeric (human IgG1) SAITAng-2-2 with the peptide at the C-terminus of the heavy chain; also called SAITAng-2-2 x DTN8VEGFR-2-2; not shown: human IgG1 heavy chain constant region with Fc region, from the vector; human light chain constant region, printed as 'constant region of human IgG1'
B4: Syn-Ang-VEGFR-9 (other)
heavy (part 1 of 2): B1 heavy (part 1 of 2)
heavy (part 2 of 2): TGSGRMCDGSGPPTNCWFT
light: B1 light
notes: Chimeric (human IgG1) SAITAng-2-2 with the peptide at the C-terminus of the heavy chain; also called SAITAng-2-2 x DTN10VEGFR-2-4; not shown: human IgG1 heavy chain constant region with Fc region, from the vector; human light chain constant region, printed as 'constant region of human IgG1'
B5: Syn-Ang-VEGFR-15: fused protein synergibody SAITAng-2-3 × DTN11VEGFR-2-5, peptide at C-terminal of heavy chain (protein)
heavy (part 1 of 2): DVQLVESGGGLVQPGGSRKLSCAASGFTFSSFGMHWVRQAPEKGLEWVAYISSDSSTIYYADTVKGRFTISRDNPKNTLFLQMTSLRSEDTAMYYCAREGGYDDYYAMDYWGQGTSVTVSS
heavy (part 2 of 2): PGSQGYCHLNMRYQWICDSE
light: DIQMTQSPASQSASLGESVTITCLASQTIGTWLAWYQQKPGKSPQLLIYAATSLADGVPSRFSGSGSGTKFSFKISSLQAEDFVSYYCQQLYSIPLTFGGGTKLEIK
modifications: left off: a dimerising Fc or GST
notes: fused protein synergibody SAITAng-2-3 × DTN11VEGFR-2-5, peptide at C-terminal of heavy chain
B6: Syn-Ang-VEGFR-16: fused protein synergibody SAITAng-2-4 × DTN6VEGFR-2-1, peptide at C-terminal of heavy chain (protein)
heavy (part 1 of 2): QVQLQQSGAELARPGASVKLSCKASGYTFTDYYINWAKQRTGQGLEWIGEIYPGSGDTYYNEKFKGKATLTADKSSSTAYMQLSSLTSEDSAVYFCARYGYKGVYFDYWGQSTTLTVSS
heavy (part 2 of 2): TGSDDLCYTFPCMHY
light: ENVLTQSPAIMAASLGQKVTMTCSASSSVSSSYLHWYQQKSGASPKPLIHRTSNLASGVPARFSGSGSGTSYSLTISSVEAEDDATYYCQQWSGYPFTFGAGTKLELK
modifications: left off: a dimerising Fc or GST
notes: fused protein synergibody SAITAng-2-4 × DTN6VEGFR-2-1, peptide at C-terminal of heavy chain
B7: Syn-Ang-VEGFR-20: fused protein synergibody SAITAng-2-4 × DTN11VEGFR-2-5, peptide at C-terminal of heavy chain (protein)
heavy (part 1 of 2): B6 heavy (part 1 of 2)
heavy (part 2 of 2): PGSQGYCHLNMRYQWICDSE
light: B6 light
modifications: left off: a dimerising Fc or GST
notes: fused protein synergibody SAITAng-2-4 × DTN11VEGFR-2-5, peptide at C-terminal of heavy chain
B8: Syn-Ang-VEGFR-18: fused protein synergibody SAITAng-2-4 × DTN9VEGFR-2-3, peptide at C-terminal of heavy chain (protein)
heavy (part 1 of 2): B6 heavy (part 1 of 2)
heavy (part 2 of 2): EAGAYWCKAWGLSPCLVT
light: B6 light
modifications: left off: a dimerising Fc or GST
notes: fused protein synergibody SAITAng-2-4 × DTN9VEGFR-2-3, peptide at C-terminal of heavy chain
B9: Syn-Ang-VEGFR-17: fused protein synergibody SAITAng-2-4 × DTN8VEGFR-2-2, peptide at C-terminal of heavy chain (protein)
heavy (part 1 of 2): B6 heavy (part 1 of 2)
heavy (part 2 of 2): EAGKETCGYEWQYCPRP
light: B6 light
modifications: left off: a dimerising Fc or GST
notes: fused protein synergibody SAITAng-2-4 × DTN8VEGFR-2-2, peptide at C-terminal of heavy chain
B10: Syn-Ang-VEGFR-19: fused protein synergibody SAITAng-2-4 × DTN10VEGFR-2-4, peptide at C-terminal of heavy chain (protein)
heavy (part 1 of 2): B6 heavy (part 1 of 2)
heavy (part 2 of 2): TGSGRMCDGSGPPTNCWFT
light: B6 light
modifications: left off: a dimerising Fc or GST
notes: fused protein synergibody SAITAng-2-4 × DTN10VEGFR-2-4, peptide at C-terminal of heavy chain

molecular target: T2, recombinant VEGFR-2 protein (water soluble extracellular site of human VEGFR-2 with Fc of human IgG1 … (human, UniProt P35968 20-764)); experiment: competitive ELISA; synergibody titrated with 1 nM VEGFR-2 on coated VEGF 165; conditions: not given
T2 construct: extracellular domain; Bought; not shown: Fc of human IgG1
Method: Competitive ELISA is performed using the peptides synthesized above in Section 6A in order to assess the molecular interaction of the binders. […] Then the plate is washed five times with PBS containing 0.1% Tween-20, and blocked at room temperature for two hours with PBS containing 5% BSA. For VEGF:VEGFR-2 neutralization ELISA, each of the peptides synthesized in Section 6A above are diluted to one-fourth each time from 100 nM with PBS containing 1 nM VEGFR-2 and 1% BSA, and adjusted to 6.1 pM. 100 μl of peptide/VEGFR-2 solution is added to each well and the plate is left to react at room temperature for two hours. Subsequently, it is washed five times with PBS containing 0.1% Tween-20, mouse anti-VEGFR-2 antibodies (R&D Systems) is diluted to about 1:3,000 with PBS containing 1% BSA, and left to react at room temperature for one hour. Then 100 μl of goat anti-mouse-IgG-HRP (Pierce) diluted to about 1:10,000 with PBS containing 1% BSA is added to each well of the plate, left to react at room temperature for one hour, and washed five times with PBS containing 0.1% Tween-20. Lastly, 100 μl of TMB substrate (SIGMA) is added to each well of the plate to induce color reaction. The reaction is stopped by adding 50 μl of 5N H₂SO₄ solution, and the OD₄₅₀ value is read on a plate reader (Molecular Devices). Through the foregoing, the IC₅₀ value for the VEGF:VEGFR-2 binding capacity is obtained.
The method in Example 2, Section 6B above is used, except that, in the present example, each fused protein synergibodies are diluted from 100 nM to one-fourth each time with PBS containing 1% BSA and 1nM VEGFR-2 and adjusted to 6.1 pM for VEGF:VEGF-2 neutralization ELISA.

T2 sequence (P35968 20-764): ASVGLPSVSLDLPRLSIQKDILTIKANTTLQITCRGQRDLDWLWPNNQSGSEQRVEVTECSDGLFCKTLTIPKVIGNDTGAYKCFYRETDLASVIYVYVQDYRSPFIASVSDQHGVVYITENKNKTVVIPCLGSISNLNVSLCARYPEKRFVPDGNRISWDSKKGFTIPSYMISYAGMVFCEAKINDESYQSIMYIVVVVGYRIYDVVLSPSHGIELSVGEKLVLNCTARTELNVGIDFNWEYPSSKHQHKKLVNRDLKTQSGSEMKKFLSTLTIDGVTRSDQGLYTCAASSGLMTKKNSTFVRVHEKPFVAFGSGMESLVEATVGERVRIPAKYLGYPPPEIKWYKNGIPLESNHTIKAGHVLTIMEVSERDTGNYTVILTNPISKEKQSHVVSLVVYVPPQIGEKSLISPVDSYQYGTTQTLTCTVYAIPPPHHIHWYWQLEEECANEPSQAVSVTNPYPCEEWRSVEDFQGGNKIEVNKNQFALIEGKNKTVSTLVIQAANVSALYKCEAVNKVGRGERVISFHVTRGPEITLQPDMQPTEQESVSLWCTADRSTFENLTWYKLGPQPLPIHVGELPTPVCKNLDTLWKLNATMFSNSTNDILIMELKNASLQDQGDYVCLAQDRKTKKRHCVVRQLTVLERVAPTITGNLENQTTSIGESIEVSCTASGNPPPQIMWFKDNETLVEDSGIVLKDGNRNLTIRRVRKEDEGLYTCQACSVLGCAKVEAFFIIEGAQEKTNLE

IC50 [nM] | Molecule
1.56 | B1
1.48 | B2
1.76 | B3
2.04 | B4

system: HUVEC; experiment: Cell-based functional assay, endothelial cell tube formation (BD BioCoat Angiogenesis System); parameters: species or system human; conditions: 5 μM fused protein synergibody, 18 hours; unrelated control group 12,227 ± 1,232
Method: Chimeric antibodies may be screened by functional assays such as cell-based assay for inhibition activity. In this example, BD BioCoat™ Angiogenesis System-Endothelial Cell Tube Formation (BD Biosciences) is used. BD Falcon 96-well Black/Clear plate coated with BD Matrigel Matrix that had been stored at −20° C. is slowly melted at 4° C. for 6 hours, and the mat cover of the plate is removed inside a sterile clean bench. Then it is left at 37° C. , 5% CO2 for 30 minutes so that the Matrigel™ Matrix would form polymers. Then it is made into a suspension by treating HUVEC, cultured on a petridish containing EGM-2 MV (Lonza) medium added with 10% fetal bovine serum to 70 to 80% confluence, with 0.5% Trypsin-EDTA (Gibco). Then it is resuspended in a culture medium containing 10% fetal bovine serum to a cell concentration of 4×10^5 cells/ml. At this time, 5 μM of each anti-Ang-2 chimeric antibodies expressed and purified in Section 5 above are also added and resuspended. Then 50 μl (about 2×10^4 cells) of each of the suspension is added to each well of the plate and incubated at 37° C. , 5% CO2 for 18 hours. Then the medium is removed and each well is washed twice with 100 μl of Hanks' balanced salt solution (HBSS, Invitrogen) ensuring that the tubes of the cells formed on BD Matrigel™ Matrix are not damaged. 50 μl of calcein AM (BD sciences) dissolved in HBSS at the concentration of 8 μg/ml is added to each well. The plate is then left to react at 37° C., 5% CO2 for 30 minutes and the calcein AM (BD sciences) solution is removed and washed twice with HBSS. Lastly, an image of the length of the entire tube of HUVEC formed on BD Matrigel™ Matrix is obtained on a fluorescent microscope and analyzed by using MetaMorph® software (Universal Imaging Corporation™, http://www.moleculardevices.com).
The peptides synthesized in Section 6A above are screened by cell-based functional assay for inhibition activity. The method described in Example 1, Section 7 is used, except that 5 μM synthesized peptides are added instead of anti-Ang-2 antibodies.
The fused protein synergibodies prepared in Section 1 above are screened using cell-based functional assay for inhibition activity. The method described in Example 1, Section 7 is used, except that, in this example, 5 μM of fused protein synergibodies are added instead of anti-Ang-2 antibodies.

Molecule | Length of entire tube of HUVEC (2 × 10^4 cells) (pixels)
B5 | 4,116 ± 815 pixels
B6 | 5,022 ± 809 pixels
B7 | 5,512 ± 699 pixels
B8 | 5,723 ± 736 pixels
B9 | 5,215 ± 714 pixels
B10 | 5,329 ± 822 pixels

molecular target: T1, recombinant hAng-2 (recombinant protein …); experiment: competitive ELISA; synergibody titrated with 1 nM hAng-2 (His) on coated hTie2-Fc; conditions: not given
Method: A competitive ELISA is performed to assess the molecular interaction of the binders. A 96-well MaxiSorp™ flat-bottom plate (Nunc) is coated with hTie2-Fc (R&D Systems), which is a fused protein including the water-soluble extracellular portion of human Tie-2 and Fc of human IgG₁ dissolved in DMEM culture solution containing 50 μg/ml bovine serum albumin (BSA). The concentration of hTie2-Fc used as a coating material is equivalent to 75% of its maximum binding concentration with 1 nM of recombinant hAng-2 (recombinant protein with His tag attached to human Ang-2; R&D Systems). Then the plate is washed five times with Phosphate Buffer Saline (PBS) containing 0.1% Tween-20 and blocked at room temperature for two hours with PBS containing 5% BSA. Each anti-Ang-2 antibodies are diluted from 100 nM by one-fourth each time with PBS containing 1% BSA and 1 nM hAng-2 and adjusted to 6.1 pM for Ang-2:Tie-2 neutralization ELISA. 100 μl of antibody/hAng-2 solutions are placed in each corresponding well and left to react at room temperature for two hours. Then the wells are washed five times with PBS containing 0.1% Tween-20, and the anti-His antibodies (GE Healthcare) are diluted to about 1:3,000 with PBS containing 1% BSA and left to react at room temperature for one hour. Afterwards, 100 μl of goat anti-mouse-IgG-HRP (Pierce) diluted with PBS containing 1% BSA to about 1:10,000 is added to each well of the plate, left to react at room temperature for one hour, and washed with PBS containing 0.1% Tween-20 five times. Lastly, 100 μl of TMB substrate (SIGMA) is added to each well of the plate to induce color reaction, and the reaction is stopped by adding 50 μl of 5N H₂SO₄ solution. The OD₄₅₀ value is read on a plate reader (Molecular Devices).
The method described in Example 1, Section 3 above is used, except that, in the present example, each fused protein synergibodies are diluted from 100 nM to one-fourth each time with PBS containing 1% BSA and 1 nM hAng-2 and adjusted to 6.1 pM for Ang-2:Tie-2 neutralization ELISA.

IC50 [nM] | Molecule
1.91 | B1
2.22 | B2
2.01 | B3
1.95 | B4
